Measurements: US20180313836A1 (Scripps Research, published 2018)

Biological target: T1, human glycyl-tRNA synthetase, wild type (GlyRS^WT) (human, UniProt P41250 55-739)
T1 construct: also called WT GlyRS; GARS
T1 sequence: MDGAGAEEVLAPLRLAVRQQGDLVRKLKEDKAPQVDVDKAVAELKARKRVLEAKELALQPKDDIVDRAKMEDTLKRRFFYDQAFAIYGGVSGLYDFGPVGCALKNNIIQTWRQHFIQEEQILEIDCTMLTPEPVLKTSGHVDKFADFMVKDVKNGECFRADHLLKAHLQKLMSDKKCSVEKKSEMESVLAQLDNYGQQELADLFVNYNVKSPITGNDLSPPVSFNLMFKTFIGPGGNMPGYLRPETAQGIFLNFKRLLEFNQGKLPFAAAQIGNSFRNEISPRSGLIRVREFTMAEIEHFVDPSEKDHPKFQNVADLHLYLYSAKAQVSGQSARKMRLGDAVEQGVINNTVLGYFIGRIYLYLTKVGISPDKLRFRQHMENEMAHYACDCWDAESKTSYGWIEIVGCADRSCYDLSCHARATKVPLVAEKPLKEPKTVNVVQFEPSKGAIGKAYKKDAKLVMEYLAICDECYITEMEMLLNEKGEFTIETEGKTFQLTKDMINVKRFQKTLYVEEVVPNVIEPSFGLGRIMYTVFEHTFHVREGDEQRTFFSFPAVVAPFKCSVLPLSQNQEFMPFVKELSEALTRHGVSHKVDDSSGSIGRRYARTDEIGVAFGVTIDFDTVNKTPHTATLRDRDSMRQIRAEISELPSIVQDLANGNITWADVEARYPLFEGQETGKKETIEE
Experiment: in vitro IP: Fc-fused Nrp1 domain constructs on Protein A resin, recombinant GlyRS added, blot GlyRS

B1: b2 (on Fc) (Fc fusion)
chain: KITDYPCSGMLGMVSGLISDSQITSSNQGDRNWMPENIRLVTSRSGWALPPAPHSYINEWLQIDLGEEKIVRGIIIQGGKHRENKVFMRKFKIGYSNNGSDWKMIMDDSKRKAKSFEGNNNYDTPELRTFPALSTRFIRIYPERATHGGLGLRMELLGCEVEAPTAGPTTPNGNLVDECDDDQANCHSGTGDDFQLTGGTTVLATEKPTVIDSTIQSEF
notes: also called Nrp1 b2 domain (res. Lys425-Phe643) fused to human IgG Fc; not shown: C-terminal human IgG Fc domain (and any V5-His tag from the vector); The CD33 signal peptide is cleaved on secretion
binding result: no binding

B2: c-Fc (drawn as the c box on Fc) (Fc fusion)
chain: TAGPTTPNGNLVDECDDDQANCHSGTGDDFQLTGGTTVLATEKPTVIDSTIQSEFPTYGFNCEFGWGSHKTFCHWEHDNHVQLKWSVLTSKTGPIQDHTGDGNFIYSQADENQKGKVARLVSPVVYSQNSAHCMTFWYHMSGSHVGTLRVKLRYQKPEEYDQLVWMAIGHQGDHWKEGRVLLHKSLKLYQVIFEGEIGKGNLGGIAVDDISINNHISQEDCAKPADLDKKNPEIKIDETGSTPGYEGEGEGD
notes: also called Nrp1 c domain (res. Thr589-Asp840) fused to human IgG Fc; not shown: C-terminal human IgG Fc domain (and any V5-His tag from the vector); The CD33 signal peptide is cleaved on secretion
binding result: no binding
